Target: parental cyclophilin A (CypA) (rhesus macaque; identical in sequence to human CypA) (UniProt P62940)
Test: ITC

Substance	Kd	dH
HIV-1 N-terminal capsid (CA^N) domain (domain or fragment)	5 µM	-6.05 kcal/mol
HIV-2 CA^N domain with CA Ala88 introduced (from UniProt P04590 136-279) (domain or fragment)	8 µM	

Source: publication PMC3556581
